Assay results: patent publication US20100040637A1

Molecular target: human prominin-1 (CD133) (human) (UniProt O43490)
Test: cell-based or functional assay

Chain of UniProt O43490 (O43490 20-865): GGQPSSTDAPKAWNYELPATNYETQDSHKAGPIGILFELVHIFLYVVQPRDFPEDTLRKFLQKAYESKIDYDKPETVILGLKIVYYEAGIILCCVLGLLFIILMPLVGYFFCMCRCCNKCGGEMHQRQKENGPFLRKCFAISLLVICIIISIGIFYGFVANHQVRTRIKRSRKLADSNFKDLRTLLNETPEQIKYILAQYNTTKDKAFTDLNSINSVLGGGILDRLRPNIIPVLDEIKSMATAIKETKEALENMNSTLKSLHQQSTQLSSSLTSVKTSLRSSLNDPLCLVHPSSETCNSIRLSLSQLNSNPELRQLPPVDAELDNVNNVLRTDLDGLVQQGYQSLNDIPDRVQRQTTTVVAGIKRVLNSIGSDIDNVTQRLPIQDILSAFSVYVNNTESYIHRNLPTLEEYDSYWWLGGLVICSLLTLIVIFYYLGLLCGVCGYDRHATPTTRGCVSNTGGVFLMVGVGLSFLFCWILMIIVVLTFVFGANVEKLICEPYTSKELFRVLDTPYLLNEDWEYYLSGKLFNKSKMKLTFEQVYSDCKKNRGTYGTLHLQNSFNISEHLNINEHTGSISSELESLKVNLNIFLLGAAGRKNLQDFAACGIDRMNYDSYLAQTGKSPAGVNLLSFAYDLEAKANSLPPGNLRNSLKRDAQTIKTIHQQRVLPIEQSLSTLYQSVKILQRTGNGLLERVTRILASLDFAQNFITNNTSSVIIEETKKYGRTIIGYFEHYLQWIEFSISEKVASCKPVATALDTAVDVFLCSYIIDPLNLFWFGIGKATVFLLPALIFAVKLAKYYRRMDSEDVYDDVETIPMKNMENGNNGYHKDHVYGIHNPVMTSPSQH

Substance	IC50, cytotoxicity (resazurin) on HEK293 cells stably expressing CD133	IC50, cytotoxicity (rezasurin dye conversion) in Hep3B cells	IC50, growth inhibition (3H-thymidine) of Caco-2 cells	IC50, cytotoxicity assay in Caco-2 cells
AC133-mcMMAF (AC133 conjugated to maleimidocaproyl-MMAF) (antibody)	1 ng/mL	6 nM	100 ng/mL	–
AC133-vcMMAE (AC133 conjugated to maleimidocaproyl-valine-citrulline-p-aminobenzoyl-MMAE) (antibody)	6 ng/mL	–	1000 ng/mL	–
AC133-vcMMAF (AC133 conjugated to maleimidocaproyl-valine-citrulline-p-aminobenzoyl-MMAF) (antibody)	1 ng/mL	0.35 nM	< 1 ng/mL	3 ng/mL
